# Laboratory results as given in publication PMC9352680, “A comprehensive thermodynamic model for RNA binding by the Saccharomyces cerevisiae Pumilio protein PUF4”.
# T1: PUF4 RNA-binding domain (Saccharomyces cerevisiae, UniProt P25339 537-888)
# T1 sequence: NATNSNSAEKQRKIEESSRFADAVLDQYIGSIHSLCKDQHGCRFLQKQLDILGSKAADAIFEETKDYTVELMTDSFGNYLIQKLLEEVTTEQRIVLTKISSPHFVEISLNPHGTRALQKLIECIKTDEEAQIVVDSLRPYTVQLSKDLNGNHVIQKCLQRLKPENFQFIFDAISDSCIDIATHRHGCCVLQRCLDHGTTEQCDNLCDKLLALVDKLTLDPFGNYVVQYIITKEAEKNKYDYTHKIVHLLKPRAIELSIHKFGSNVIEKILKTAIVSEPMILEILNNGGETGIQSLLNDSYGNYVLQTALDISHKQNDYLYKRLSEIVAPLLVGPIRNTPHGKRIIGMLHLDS
# Molecular target: T1, PUF4 RNA-binding domain
# Test: Mg; RNA-MaP; 20 mM Na-HEPES pH 7.4, 30 mM KOAc, 0.75 mM MgCl2, 0.1% Tween-20, 5% glycerol, 0.1 mg/mL BSA, 2 mM DTT; 25 C; 0.0125-409.6 nM protein
# Settings: tags: N-His6-TEV cleaved; C-SNAP kept, Cy3B-labelled; label: tethered on chip by stalled RNA polymerase
row,Binder,Kd [nM]
1,Ic_S4_P5E.1_K5.1_C5.1_H5.1_A5.1_[T5G]_[T6C]_[A7T]_F5.1_[T9A]_[A10C]_T5.1 (ssRNA) RNA: UUUGACAACUGAUCGUUCUUUCUUGUAGCUUACUUCUUUCUCGAUCAGUUGUCUUU,24.4
2,Ic_S4_P5E.1_K5.1_C5.1_H5.1_A5.1_[T5A]_[T6A]_[A7C]_F5.1_[T8C]_[T9G]_[A10C]_T5.1 (ssRNA) RNA: UUUGACAACUGAUCGUUCUUUCUUGUAAACCGCUUCUUUCUCGAUCAGUUGUCUUU,703
3,Ic_S4_P5E.1_K5.1_C5.1_H5.1_A5.1_[T6G]_[A7T]_F5.1_[T8G]_[T9C]_[A10C]_T5.1 (ssRNA) RNA: UUUGACAACUGAUCGUUCUUUCUUGUAUGUGCCUUCUUUCUCGAUCAGUUGUCUUU,67.2
4,Ic_S4_P5E.1_K5.1_C5.1_H5.1_A5.1_[T5C]_[T6C]_[A7T]_F5.1_[T9A]_[A10G]_T5.1 (ssRNA) RNA: UUUGACAACUGAUCGUUCUUUCUUGUACCUUAGUUCUUUCUCGAUCAGUUGUCUUU,3.61
5,Ic_S4_P5E.1_K5.1_C5.1_H5.1_A5.1_[T5A]_[T6A]_[A7T]_F5.1_[T8C]_[T9A]_[A10G]_T5.1 (ssRNA) RNA: UUUGACAACUGAUCGUUCUUUCUUGUAAAUCAGUUCUUUCUCGAUCAGUUGUCUUU,180
6,Ic_S4_P5E.1_K5.1_C5.1_H5.1_A5.1_[T5C]_[T6A]_F5.1_[T8A]_[T9C]_[A10T]_T5.1 (ssRNA) RNA: UUUGACAACUGAUCGUUCUUUCUUGUACAAACUUUCUUUCUCGAUCAGUUGUCUUU,80.6
7,Ic_S4_P5E.1_K5.1_C5.1_H5.1_A5.1_[T5A]_[A7T]_F5.1_[T8C]_[T9C]_[A10T]_T5.1 (ssRNA) RNA: UUUGACAACUGAUCGUUCUUUCUUGUAAUUCCUUUCUUUCUCGAUCAGUUGUCUUU,179
8,Ic_S4_P5E.1_K5.1_C5.1_H5.1_A5.1_F5.1_[T8C]_[T9C]_[A10T]_T5.1 (ssRNA) RNA: UUUGACAACUGAUCGUUCUUUCUUGUAUUACCUUUCUUUCUCGAUCAGUUGUCUUU,160
9,Ic_S4_P5E.1_K5.1_C5.1_H5.1_A5.1_[T6G]_[A7T]_F5.1_[T8C]_[T9C]_[A10C]_T5.1 (ssRNA) RNA: UUUGACAACUGAUCGUUCUUUCUUGUAUGUCCCUUCUUUCUCGAUCAGUUGUCUUU,66.1
10,Ic_S4_P5E.1_K5.1_C5.1_H5.1_A5.1_[T5C]_[T6A]_F5.1_[T9C]_[A10T]_T5.1 (ssRNA) RNA: UUUGACAACUGAUCGUUCUUUCUUGUACAAUCUUUCUUUCUCGAUCAGUUGUCUUU,19.7
11,Ic_S4_P5E.1_K5.1_C5.1_H5.1_A5.1_[T6C]_[A7T]_F5.1_[T9C]_[A10C]_T5.1 (ssRNA) RNA: UUUGACAACUGAUCGUUCUUUCUUGUAUCUUCCUUCUUUCUCGAUCAGUUGUCUUU,17.2
12,Ic_S4_P5E.1_K5.1_C5.1_H5.1_A5.1_[T6C]_[A7T]_F5.1_[T8C]_[A10G]_T5.1 (ssRNA) RNA: UUUGACAACUGAUCGUUCUUUCUUGUAUCUCUGUUCUUUCUCGAUCAGUUGUCUUU,19.1
13,Ic_S4_P5E.1_K5.1_C5.1_H5.1_A5.1_[T6C]_[A7G]_F5.1_[T8A]_[A10C]_T5.1 (ssRNA) RNA: UUUGACAACUGAUCGUUCUUUCUUGUAUCGAUCUUCUUUCUCGAUCAGUUGUCUUU,1840
14,Ic_S4_P5E.1_K5.1_C5.1_H5.1_A5.1_[T5C]_[T6C]_F5.1_[T8C]_[T9A]_[A10T]_T5.1 (ssRNA) RNA: UUUGACAACUGAUCGUUCUUUCUUGUACCACAUUUCUUUCUCGAUCAGUUGUCUUU,158
15,Ic_S4_P5E.1_K5.1_C5.1_H5.1_A5.1_[T5C]_[A7T]_F5.1_[T8A]_[T9C]_[A10G]_T5.1 (ssRNA) RNA: UUUGACAACUGAUCGUUCUUUCUUGUACUUACGUUCUUUCUCGAUCAGUUGUCUUU,561
16,Ic_S4_P5E.1_K5.1_C5.1_H5.1_A5.1_[T5A]_[A7C]_F5.1_[T8C]_[T9G]_[A10C]_T5.1 (ssRNA) RNA: UUUGACAACUGAUCGUUCUUUCUUGUAAUCCGCUUCUUUCUCGAUCAGUUGUCUUU,946
17,Ic_S4_P5E.1_K5.1_C5.1_H5.1_A5.1_[T5C]_[T6A]_[A7T]_F5.1_[T8C]_[T9C]_T5.1 (ssRNA) RNA: UUUGACAACUGAUCGUUCUUUCUUGUACAUCCAUUCUUUCUCGAUCAGUUGUCUUU,20.4
18,Ic_S4_P5E.1_K5.1_C5.1_H5.1_A5.1_[T5A]_[A7C]_F5.1_[T8A]_[T9G]_[A10C]_T5.1 (ssRNA) RNA: UUUGACAACUGAUCGUUCUUUCUUGUAAUCAGCUUCUUUCUCGAUCAGUUGUCUUU,1930
19,Ic_S4_P5E.1_K5.1_C5.1_H5.1_A5.1_[T5G]_[T6C]_F5.1_[T9A]_[A10C]_T5.1 (ssRNA) RNA: UUUGACAACUGAUCGUUCUUUCUUGUAGCAUACUUCUUUCUCGAUCAGUUGUCUUU,6.93
20,Ic_S4_P5E.1_K5.1_C5.1_H5.1_A5.1_[T5A]_F5.1_[T8A]_[T9C]_[A10T]_T5.1 (ssRNA) RNA: UUUGACAACUGAUCGUUCUUUCUUGUAAUAACUUUCUUUCUCGAUCAGUUGUCUUU,561
21,Ic_S4_P5E.1_K5.1_C5.1_H5.1_A5.1_[T5G]_[T6C]_[A7G]_F5.1_[T9A]_T5.1 (ssRNA) RNA: UUUGACAACUGAUCGUUCUUUCUUGUAGCGUAAUUCUUUCUCGAUCAGUUGUCUUU,25.3
22,UCUCUUUGUAUUUUUUCUCUU (ssRNA) [Ib_S1_P4E.1_K4.1_C4.1_H4.1_A4.1_[A6T]_F4.1_[A9T]_T4.1],20.9
23,UCUCUUUGUAUCUUUUCUCUU (ssRNA) [Ib_S1_P4E.1_K4.1_C4.1_H4.1_A4.1_[A6C]_F4.1_[A9T]_T4.1],20.9
24,UCUCUUUGUAUAGUGUCUCUU (ssRNA) [Ib_S1_P4E.1_K4.1_C4.1_H4.1_A4.1_[T7G]_F4.1_[A9G]_T4.1],13
25,UCUCUUUGUAUGUUUUCUCUU (ssRNA) [Ic_S1_P4E.1_K4.1_C4.1_H4.1_A4.1_[A6G]_F4.1_[A9T]_T4.1],40
